Results: patent US20210221899A1 (published 2021)
Where a chain is given by its changes, count along the chain named.

T1: canine NGF (canine, UniProt Q29074 110-229 (pig entry), limits assumed)
T1 construct: The protein was secreted from CHO cells and purified; also called cNGF; canine β-NGF
T1 chain: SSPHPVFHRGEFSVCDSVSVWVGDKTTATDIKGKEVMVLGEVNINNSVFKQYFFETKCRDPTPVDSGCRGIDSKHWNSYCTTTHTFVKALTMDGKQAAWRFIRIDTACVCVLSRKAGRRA

T2: human NGF (human, UniProt P01138 122-241)
T2 construct: also called human Nerve Growth Factor; hN
T2 chain: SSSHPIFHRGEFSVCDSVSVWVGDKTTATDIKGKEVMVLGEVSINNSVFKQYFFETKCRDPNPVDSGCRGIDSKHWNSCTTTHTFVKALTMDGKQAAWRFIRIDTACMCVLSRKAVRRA

B1: can9L12VH_I50A (antibody, V domains shown)
VH: EVQLVESGGDLVKPGGSLRLSCVASGFTFSSHGMHWVRQSPGKGLQWVAVANSGGSSTYYTDAVKGRFTISRDNAKNTVYLQMNSLRAEDTAMYYCAKESVGGWEQLVGPHFDYWGQGTLVIVSS
VL: QSVLTQPTSVSGSLGQRVTISCSGSTNNIGILGASWYQLFPGKAPKLLVYGNGNRPSGVPDRFSGADSGDSVTLTITGLQAEDEADYYCQSFDTTLGAHVFGGGTHLTVL
B2: can9L12VH_D113A (antibody, V domains shown)
VH: B1 VH with A51I, D113A
VL: B1 VL
B3: can48L2VL_G53A (antibody, V domains shown)
VH: EVQLVESGGDLVKPGGSLRLSCVASGFTFSTYGINWVRQAPGKGLQWVAYISSGGSSTYYADPVKGRFTISRDDAKNMLYLQMNSLRAEDTAIYYCAGSRYTYAYGGGYEFHFWGQGTLVTVSS
VL: QAVLNQPASVSGALGQKVTISCSGSTMDIDIFGVSWYQQLPGKAPKLLVDSDADRPSGIPDRFSGSRSGNSGTLTITGLQAEDEADYHCQSGDSTLGALAIFGGGTHVTVL
notes: CDR scanning mutant of ZTS-842 (48L2)
B4: can48L2VL_T26A (antibody, V domains shown)
VH: B3 VH
VL: B3 VL with T26A, A53G
notes: as for B3
B5: can48L2VL_G97A (antibody, V domains shown)
VH: B3 VH
VL: B3 VL with A53G, G97A
notes: as for B3
B6: can48L2VL_I29A (antibody, V domains shown)
VH: B3 VH
VL: B3 VL with I29A, A53G
notes: as for B3
B7: can48L2VL_L99A (antibody, V domains shown)
VH: B3 VH
VL: B3 VL with A53G, L99A
notes: as for B3
B8: can48L2VL_L96A (antibody, V domains shown)
VH: B3 VH
VL: B3 VL with A53G, L96A
notes: as for B3
B9: can48L2VL_I101A (antibody, V domains shown)
VH: B3 VH
VL: B3 VL with A53G, I101A
notes: as for B3
B10: can48L2VL_S94A (antibody, V domains shown)
VH: B3 VH
VL: B3 VL with A53G, S94A
notes: as for B3
B11: can48L2VL_M27A (antibody, V domains shown)
VH: B3 VH
VL: B3 VL with M27A, A53G
notes: as for B3
B12: can48L2VL_T95A (antibody, V domains shown)
VH: B3 VH
VL: B3 VL with A53G, T95A
notes: as for B3
B13: can48L2VL_I31A (antibody, V domains shown)
VH: B3 VH
VL: B3 VL with I31A, A53G
notes: as for B3
B14: can48L2VL_S51A (antibody, V domains shown)
VH: B3 VH
VL: B3 VL with S51A, A53G
notes: as for B3
B15: can48L2VL_S91A (antibody, V domains shown)
VH: B3 VH
VL: B3 VL with A53G, S91A
notes: as for B3
B16: can48L2VL_G92A (antibody, V domains shown)
VH: B3 VH
VL: B3 VL with A53G, G92A
notes: as for B3
B17: can48L2VL_Q90A (antibody, V domains shown)
VH: B3 VH
VL: B3 VL with A53G, Q90A
notes: as for B3
B18: humanized mAb can9L12VH_HM855939 / can9L12VL (antibody, V domains shown)
VH: QVQLVESGGGVVQPGGSLRLSCAASGFTFSSHGMHWVRQAPGKGLEWVSVINSGGSSTYYADSVKGRFTISRDNSKNTLYLQMNSLRAEDTAVYYCAKESVGGWEQLVGPHFDYWGQGTLVIVSS
VL: B1 VL
B19: humanized mAb can9L12VH_X92218 / can9L12VL (antibody, V domains shown)
VH: B18 VH with Q1E, V11L, H35S
VL: B1 VL
B20: humanized mAb can9L12VH / can9L12VL_M94116_65698 (antibody, V domains shown)
VH: B1 VH with A51I
VL: QSVLTQPTSVSGAPGQRVTISCTGSTNNIGILGVHWYQQLPGTAPKLLIYGNGNRPSGVPDRFSGADSGDSVSLAITGLQAEDEADYYCQSFDTTLGAHVFGGGTHLTVL
B21: humanized mAb can48L2VH_HM855323.1 / can48L2VL_Z22192.1 (antibody, V domains shown)
VH: B3 VH with D10G, V23A, Q46E, A49S, P63S, D74N, M78S, I93V
VL: QSVVTQPPSVSGAPGQRVTISCTGSTMDIDIFGVSWYQQLPGTAPKLLIYGDGDRPSGVPDRFSGSKSGASASLAITGLQAEDEADYHCQSGDSTLGALAIFGGGTHVTVL
B22: humanized mAb can48L2VH_HM855323.1 / can48L2VL_Z22192.1_P8A (antibody, V domains shown)
VH: B3 VH with D10G, V23A, Q46E, A49S, P63S, D74N, M78S, I93V
VL: B21 VL with P8A

Target: T1, canine NGF
Test: SPR (Biacore T200), 100 nM mAb on NGF chip, similarity to parent mAb
Summary of the method: (§1)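 CDR alanine-scan mutants of the anti-NGF mAb were each run at 100 nM over an NGF-coated Biacore T200 chip. A threshold band was set from the mean response units of four parent-mAb replicates ±3 SD, covering both on- and off-rate phases. The score is the percentage of each mutant's data points falling inside that band.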

Binder | Percent Similarity Score (KD on cN) [%]
B1 | 100
B2 | 100
B3 | 100
B4 | 97.3
B5 | 92.4
B6 | 47
B7 | 96.8
B8 | 90
B9 | 97.3
B10 | 97.8
B11 | 28
B12 | 94.9
B13 | 32.9
B14 | 100
B15 | 59.6
B16 | 93.6
B17 | 94.4

Each binder was assayed against T3, rat NGF (rat, UniProt P25427 122-241) in the same assay as above.
T3 construct: also called rN
T3 sequence (P25427 122-241 limits assumed): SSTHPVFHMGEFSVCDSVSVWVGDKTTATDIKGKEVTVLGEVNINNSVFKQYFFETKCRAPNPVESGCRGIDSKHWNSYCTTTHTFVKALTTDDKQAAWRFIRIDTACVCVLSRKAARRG
Summary of the method: as §1

Binder | Percent Similarity Score (KD on rN) [%]
B1 | 92
B2 | 100
B3 | 100
B4 | 98
B5 | 99.6
B6 | 57.2
B7 | 98.4
B8 | 93.2
B9 | 99.6
B10 | 99.3
B11 | 37.9
B12 | 99.4
B13 | 39.9
B14 | 100
B15 | 76.7
B16 | 97
B17 | 98.7

Target: T2, human NGF
Test: as above
Summary of the method: as §1

Binder | Percent Similarity Score (KD on hN) [%]
B1 | 96.6
B2 | 100
B3 | 100
B4 | 99.8
B5 | 100
B6 | 97.8
B7 | 99.8
B8 | 99.9
B9 | 100
B10 | 100
B11 | 72.1
B12 | 99.6
B13 | 86.2
B14 | 100
B15 | 97.5
B16 | 99.3
B17 | 99.9

Target: T2, human NGF
Test: SPR (Biacore), human NGF amine-coupled on chip, antibody injected
Experimental: Antibody binding affinities of the antibodies against human NGF (SEQ ID NO.66) were determined by surface plasmon resonance (SPR). Human NGF was immobilized on the surface of a BIACORE chip by direct amine coupling. Various concentrations of the described humanized anti-NGF antibodies were injected over the human NGF surfaces while the association of the antibody to the antigen and the dissociation of the formed complex were monitored in real time. Kinetic analysis was performed to obtain the equilibrium dissociation constant (KD).

Binder | Kd [nM] | koff [s⁻¹] | kon [M⁻¹ s⁻¹]
B18 | 4.12 | 0.00161 | 390000
B19 | 0.126 | 3.78e-05 | 301000
B20 | 9.19 | 0.00197 | 214000
B21 | 1.54 | 0.000256 | 167000
B22 | 1.54 | 0.000315 | 205000
